Consider 167 variants from the RNAGym collection of RNA variant scans (doi:10.7554/elife.90254).

B1: LINE1-mini (parent)
chain: GGCAGAGCUCAACACAGCGUGGCAAAGUGGCUGUGGCUAGACUGCC

Variants of B1 are the subject of the data set. Put plainly: self-cleavage, relative activity (ratio to wild type); higher = more cleavage; in vitro, sequencing; the parent is a self-cleaving ribozyme.
As for A14U A24G, the self-cleavage stood at 0.79.

In the case of C15G C42U, the self-cleavage amounted to 0.04.

With C15G C42A, the self-cleavage came to 0.04.

For C15G C42G, the self-cleavage was 0.1.

Regarding A14G G44U, the self-cleavage turned out to be 0.19.

Regarding A14G G44A, the self-cleavage was determined as 0.22.

For the variant A14G G44C, the self-cleavage was found to be 0.19.

Regarding A14U G27U, the self-cleavage turned out to be 0.29.

Take A14U G27A: the self-cleavage was 0.37.

As for A14U G27C, the self-cleavage came to 0.16.

On to C15A, for which the self-cleavage is 0.1.

As to C15G, the self-cleavage came to 0.07.

Take C15A A26G: the self-cleavage was found to be 0.06.

For the variant C15A A26U, the self-cleavage was determined as 0.08.

With C15A A26C, the self-cleavage worked out at 0.08.

On to A14G A41C, for which the self-cleavage turned out to be 0.05.

Take A14G A41G: the self-cleavage was determined as 0.16.

Regarding A14G A41U, the self-cleavage worked out at 0.77.

With A14U U32G, the self-cleavage stood at 0.1.

For A14U U32C, the self-cleavage was 0.15.

As for A14U U32A, the self-cleavage was 0.05.

Regarding A14G U32A, the self-cleavage was found to be 0.06.

For A14G U32C, the self-cleavage came out at 0.08.

With A14G U32G, the self-cleavage is 0.04.

As to A14U C15G, the self-cleavage amounted to 0.04.

Regarding A14U C15A, the self-cleavage was determined as 0.16.

Consider A14U C15U, for which the self-cleavage was 0.18.

C15A U32C: the self-cleavage was found to be 0.07.

Turning to C15A U32G, the self-cleavage was 0.06.

As for C15A U32A, the self-cleavage was 0.06.

Regarding A14G G33C, the self-cleavage was 0.03.

For the variant A14G G33A, the self-cleavage was 0.07.

For A14G G33U, the self-cleavage was determined as 0.16.

With A14G U43G, the self-cleavage came to 0.11.

For the variant A14G U43C, the self-cleavage was found to be 0.06.

As to A14G U43A, the self-cleavage was determined as 0.05.

For the variant A14G G21C, the self-cleavage was 0.24.

Consider A14G G21A, for which the self-cleavage came to 0.71.

Regarding A14G G21U, the self-cleavage came out at 0.79.

As for A14U U34C, the self-cleavage turned out to be 0.17.

On to A14U U34A, for which the self-cleavage worked out at 0.82.

Take A14U U34G: the self-cleavage was 0.75.

For A14G G22A, the self-cleavage was 0.34.

For A14G G22C, the self-cleavage was 0.31.

Consider A14G G22U, for which the self-cleavage is 0.98.

With A14U U43G, the self-cleavage was found to be 0.35.

As to A14U U43C, the self-cleavage amounted to 0.07.

With A14U U43A, the self-cleavage worked out at 0.16.

Take A14G C18U: the self-cleavage is 0.42.

On to A14G C18A, for which the self-cleavage turned out to be 0.2.

Take A14G C18G: the self-cleavage stood at 0.21.

For C15A A16C, the self-cleavage was found to be 0.08.

As for C15A A16U, the self-cleavage came to 0.06.

In the case of C15A A16G, the self-cleavage came out at 0.07.

Take A14U C23G: the self-cleavage turned out to be 0.15.

Regarding A14U C23A, the self-cleavage was determined as 0.65.

Take A14U C23U: the self-cleavage was found to be 0.31.

As for C15G C45A, the self-cleavage was 0.02.

On to C15G C45G, for which the self-cleavage is 0.08.

In the case of C15G C45U, the self-cleavage turned out to be 0.05.

With C15A G21U, the self-cleavage is 0.12.

With C15A G21A, the self-cleavage worked out at 0.16.

Take C15A G21C: the self-cleavage stood at 0.11.

As to C15G C31A, the self-cleavage amounted to 0.02.

Regarding C15G C31G, the self-cleavage stood at 0.03.

On to C15G C31U, for which the self-cleavage stood at 0.04.

For the variant A14G G30C, the self-cleavage was determined as 0.24.

Turning to A14G G30A, the self-cleavage amounted to 0.28.

As to A14G G30U, the self-cleavage was found to be 0.34.

With A14U G44A, the self-cleavage amounted to 0.13.

For the variant A14U G44U, the self-cleavage was 0.06.

Consider A14U G44C, for which the self-cleavage amounted to 0.2.

Consider C15A C45A, for which the self-cleavage came out at 0.08.

As for C15A C45U, the self-cleavage is 0.12.

C15A C45G: the self-cleavage came to 0.05.

With A14G C42A, the self-cleavage was 0.08.

For A14G C42G, the self-cleavage amounted to 0.04.

Turning to A14G C42U, the self-cleavage was 0.21.

Take A14U G19U: the self-cleavage stood at 0.62.

In the case of A14U G19C, the self-cleavage was 0.15.

As for A14U G19A, the self-cleavage came to 0.53.

Consider C15A A25C, for which the self-cleavage was 0.04.

With C15A A25U, the self-cleavage turned out to be 0.07.

Take C15A A25G: the self-cleavage was found to be 0.12.

For A14G U34A, the self-cleavage was 0.16.

A14G U34G: the self-cleavage was determined as 0.3.

For A14G U34C, the self-cleavage worked out at 0.61.

Regarding A14U G36C, the self-cleavage was found to be 0.08.

Regarding A14U G36U, the self-cleavage came out at 0.24.

Regarding A14U G36A, the self-cleavage amounted to 0.15.

Consider A14G A24C, for which the self-cleavage is 0.27.

As for A14G A24U, the self-cleavage turned out to be 0.43.

For the variant A14G A24G, the self-cleavage was found to be 0.76.

Consider C15A G33C, for which the self-cleavage was found to be 0.06.

As to C15A G33A, the self-cleavage is 0.11.

As for C15A G33U, the self-cleavage was 1.81.

Turning to C15A G35C, the self-cleavage stood at 0.05.

Take C15A G35A: the self-cleavage turned out to be 0.1.

On to C15A G35U, for which the self-cleavage was determined as 0.08.

With A14U A25U, the self-cleavage is 0.32.

Turning to A14U A25C, the self-cleavage is 0.3.

On to A14U A25G, for which the self-cleavage worked out at 0.1.

Consider A14U, for which the self-cleavage stood at 0.45.

A14G: the self-cleavage turned out to be 0.58.

Turning to A14G G36U, the self-cleavage was found to be 0.12.

As to A14G G36C, the self-cleavage stood at 0.07.

Take A14G G36A: the self-cleavage came to 0.26.

Regarding A14G G35C, the self-cleavage amounted to 0.05.

For the variant A14G G35U, the self-cleavage stood at 0.15.

A14G G35A: the self-cleavage was determined as 0.07.

Take C15A G17A: the self-cleavage came out at 0.14.

Take C15A G17U: the self-cleavage was determined as 0.09.

As for C15A G17C, the self-cleavage is 0.04.

Turning to C15A U34G, the self-cleavage was found to be 0.05.

Take C15A U34C: the self-cleavage came to 0.06.

With C15A U34A, the self-cleavage was 0.59.

For C15A C31G, the self-cleavage was determined as 0.03.

Turning to C15A C31U, the self-cleavage is 0.04.

For C15A C31A, the self-cleavage is 0.05.

For A14G U28A, the self-cleavage was 0.39.

Take A14G U28C: the self-cleavage was determined as 0.04.

A14G U28G: the self-cleavage turned out to be 0.3.

Turning to C15A U38C, the self-cleavage came out at 0.07.

For C15A U38A, the self-cleavage came out at 0.05.

In the case of C15A U38G, the self-cleavage is 0.07.

With A14U U20C, the self-cleavage came out at 0.19.

With A14U U20G, the self-cleavage came to 0.28.

In the case of A14U U20A, the self-cleavage is 0.42.

In the case of A14G A16U, the self-cleavage was 0.06.

In the case of A14G A16G, the self-cleavage came to 0.1.

A14G A16C: the self-cleavage was found to be 0.08.

For C15A C46G, the self-cleavage came out at 0.05.

Turning to C15A C46U, the self-cleavage was found to be 0.12.

Consider C15A C46A, for which the self-cleavage stood at 0.09.

In the case of C15A C23G, the self-cleavage came out at 0.05.

Turning to C15A C23A, the self-cleavage was found to be 0.18.

Take C15A C23U: the self-cleavage was determined as 0.14.

Consider A14U C45U, for which the self-cleavage is 0.36.

Consider A14U C45A, for which the self-cleavage came to 0.07.

Consider A14U C45G, for which the self-cleavage amounted to 0.07.

On to C15G A16U, for which the self-cleavage was found to be 0.05.

Turning to C15G A16G, the self-cleavage was 0.05.

With C15G A16C, the self-cleavage worked out at 0.11.

Turning to A14U G22U, the self-cleavage was 0.87.

Consider A14U G22C, for which the self-cleavage worked out at 0.27.

Regarding A14U G22A, the self-cleavage is 0.35.

Consider A14C U43G, for which the self-cleavage is 0.01.

On to A14C U43A, for which the self-cleavage worked out at 0.2.

As for A14C U43C, the self-cleavage came out at 0.04.

For the variant A14C U38C, the self-cleavage came out at 0.07.

For the variant A14C U38G, the self-cleavage was found to be 0.02.

Consider A14C U38A, for which the self-cleavage was determined as 0.21.

Turning to A14U A39U, the self-cleavage worked out at 0.57.

As to A14U A39G, the self-cleavage was 0.06.

As to A14U A39C, the self-cleavage amounted to 0.14.

As for A14U C31G, the self-cleavage was 0.04.

With A14U C31U, the self-cleavage stood at 0.04.

With A14U C31A, the self-cleavage worked out at 0.06.

On to A14U A16G, for which the self-cleavage came to 0.09.

Regarding A14U A16U, the self-cleavage was 0.1.

In the case of A14U A16C, the self-cleavage was 0.1.

As to C15G A41G, the self-cleavage amounted to 0.04.

With C15G A41U, the self-cleavage turned out to be 0.06.

Consider C15G A41C, for which the self-cleavage is 0.04.

Regarding A14U G17C, the self-cleavage turned out to be 0.22.

Consider A14U G17A, for which the self-cleavage came out at 0.13.

For the variant A14U G17U, the self-cleavage worked out at 0.1.
